For one molecule, ΔV (V) results are on record in patent publication US20220252583A1.

Assay [1] addresses monoclonal mouse IgG1 anti human CRP antibody B08. Put plainly: swCNT-FET displacement of peptide 80715-Au nanoparticle complex from immobilised B08; CRP 1.56 nM in PBS.
Assay [2] has the same target. Put plainly: swCNT-FET displacement of peptide 80715-Au nanoparticle complex from immobilised B08; CRP 24 pM in PBS.
Assay [3] has the same target. Put plainly: swCNT-FET displacement of peptide 80715-Au nanoparticle complex from immobilised B08; CRP 100 nM in PBS.
For assay [4] the target is unchanged. Put plainly: swCNT-FET displacement of peptide 80715-Au nanoparticle complex from immobilised B08; CRP 3 pM in PBS.
Assay [5] shares this target. Kind of assay: swCNT-FET displacement of peptide 80715-Au nanoparticle complex from immobilised B08; CRP 195 pM in PBS.
Assay [6] has the same target. Kind of assay: swCNT-FET displacement of peptide 80715-Au nanoparticle complex from immobilised B08; CRP 381 fM in PBS.
For assay [7] the target is unchanged. Put plainly: swCNT-FET displacement of peptide 80715-Au nanoparticle complex from immobilised B08; CRP 800 nM in PBS.
For assay [8] the target is unchanged. Put plainly: swCNT-FET displacement of peptide 80715-Au nanoparticle complex from immobilised B08; CRP 12.5 nM in PBS.

B1: biomarker C-reactive protein (CRP) (protein, human, UniProt P02741 19-224, looked up)
chain: QTDMSRKAFVFPKESDTSYVSLKAPLTKPLKAFTVCLHFYTELSSTRGYSIFSYATKRQDNEILIFWSKDIGYSFTVGGSEILFEVPEVTVAPVHICTSWESASGIVEFWVDGKPRVRKSLKKGYTVGAEASIILGQEQDSFGGNFEGSQSLVGDIGNVNMWDFVLSPDEINTIYLGGPFSPNVLNWRALKYEVQGEVFTKPQLWP
Consider B1, for which the ΔV (V) in assay [1] was -0.02 V; in assay [2] it was -0.016 V; in assay [3], -0.024 V; in assay [4], -0.013 V; in assay [5], -0.017 V; in assay [6], -0.009 V. In addition, the ΔV (V) in assay [7] was -0.027 V; in assay [8] it was -0.022 V.
